In patent US20250114450A1 (AKESO BIOPHARMA, published 2025):

Target: T1, FcγRI (UniProt P12314 16-288, limits assumed)
T1 construct: construct not described; also called CD64; FcγRIa
Experiment: BLI (Fortebio Octet), FcγRI immobilized on HIS1K sensor, antibody 3.12-50 nM, 1:1 fit
Protocol: 1 μg/mL FcγRIa was immobilized on the HIS1K sensor for 50 s. The sensor was equilibrated in a buffer for 60 s, and the binding of the immobilized CD64 on the sensor to the antibodies at concentrations of 3.12-50 nM (two-fold dilution) was determined for 120 s. The antibody was dissociated in the buffer for 120 s. The sensor was refreshed 4 times in 10 mM glycine pH 1.5, each for 5 s. The detection temperature was 30° C. and the frequency was 0.3 Hz. The data were analyzed by 1:1 model fitting to obtain affinity constants.

T1 sequence (P12314 16-288 limits assumed): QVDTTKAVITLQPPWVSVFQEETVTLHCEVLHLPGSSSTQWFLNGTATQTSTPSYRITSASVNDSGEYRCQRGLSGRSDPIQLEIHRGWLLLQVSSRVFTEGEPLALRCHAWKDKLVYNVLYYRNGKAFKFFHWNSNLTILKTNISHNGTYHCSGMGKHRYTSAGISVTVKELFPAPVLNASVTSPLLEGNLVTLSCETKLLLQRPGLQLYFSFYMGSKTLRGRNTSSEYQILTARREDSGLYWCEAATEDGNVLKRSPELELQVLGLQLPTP

B1: Bevacizumab (antibody, human IgG1, kappa)
heavy: not shown
light: not shown
notes: also called Avastin; anti-VEGFA monoclonal antibody
Question: Which Kd does the source give for B1 here?
Answer: 3.68 nM
